This is an account of results in patent US20260008847A1 (ELPISCIENCE SUZHOU BIOPHARMA, published 2026).

In assay [1] the target is T1, 6×His-tagged human LILRB2 ECD recombinant protein (human, UniProt Q8N423 22-458, limits assumed).
T1 construct: Bought protein; not shown: 6×His-tag
The assay is described as follows: Octet, 1:1 model.

The target of assay [2] is T2, Cell membrane human LILRB2 on human primary monocytes from healthy donors (human, UniProt Q8N423 22-597). The assay is described as follows: cell-based or functional assay.
The target of assay [3] is T3, Human LILRB2 stably expressed on EL4 cells (EL4/LILRB2) (human, UniProt Q8N423 22-597).
T3 construct: also called EL4-LILRB2 cells; cell membrane human LILRB2
Put plainly: FACS on EL4/LILRB2 cells.

The target of assay [4] is T2, Cell membrane human LILRB2 on human …. Put plainly: FACS on human primary monocytes, Donor #1045.
Assay [5] shares this target. The assay is described as follows: FACS on human primary monocytes, Donor #6004.
Assay [6] concerns the target T1, 6×His-tagged human LILRB2 ECD …. Put plainly: Bio-Layer Interferometry (Octet), 1:1 model, human LILRB2 ECD.
Assay [7] addresses T3, Human LILRB2 stably expressed on EL4 …. Put plainly: competitive FACS, blockade of HLA-G binding to LILRB2 on cells.
Method: (§1) The blocking activities were determined by quantitating the blockade of the ligands binding to EL4/LILRB2 cells.
Assay [8] addresses T1, 6×His-tagged human LILRB2 ECD …. The assay is described as follows: Octet tandem binning on captured 6×His LILRB2 ECD; competitor (Ab1) 043c.
Method: Briefly, the HIS1K sensors were hydrolyzed for 10 minutes followed by capture of 6×His-tagged human LILRB2 ECD recombinant protein to 0.3 nm. The LILRB2 captured sensors were then exposed to Ab1 and Ab2 in tandem or Ab2 directly. The binding signals of Ab2 to LILRB2 under different conditions were detected respectively. Finally, the relative binding signals of Ab2 in tandem were calculated by normalization. High relative binding signals represent low competition between Ab2 and Ab1 for binding antigen. Likewise, low relative association signals represent high competition between Ab2 and Ab1.
For assay [9] the target is unchanged. Put plainly: Octet, 1:1 model; column printed as 'kd (1/s)', heads of c4 and c5 are swapped.
For assay [10] the target is unchanged. The assay is described as follows: Octet, 1:1 model; column printed as 'ka (1/Ms)', heads of c4 and c5 are swapped.
The target of assay [11] is T4, Human LILRA2 ECD recombinant protein with His-tag (human, UniProt Q8N149 24-449).
T4 construct: range 24-449; Bought protein; not shown: His-tag
The assay is described as follows: ELISA: plate coated with LILRA2 ECD recombinant protein, antibody at 0.5 ug/mL (method of example 3.2.1); mean OD450 printed over the bar [continued) B].

Assay [12] concerns the target T5, Human LILRA4 ECD recombinant protein with 6×His-tag (human, UniProt P59901 24-446).
T5 construct: range 1-446; Bought protein; not shown: 6×His-tag
The assay is described as follows: ELISA: plate coated with LILRA4 ECD recombinant protein, antibody at 0.5 ug/mL (method of example 3.2.1); mean OD450 printed over the bar [continued) D].

Assay [13] deals with T6, Human LILRB1 ECD recombinant protein with 6×His-tag (human, UniProt Q8NHL6 24-458, limits assumed).
T6 construct: Bought protein; not shown: 6×His-tag
The assay is described as follows: ELISA: plate coated with LILRB1 ECD recombinant protein, antibody at 0.5 ug/mL (method of example 3.2.1); mean OD450 printed over the bar [continued) F].

The target in assay [14] is T7, Human LILRB3 ECD recombinant protein with 6×His-tag (human, UniProt O75022 24-443).
T7 construct: range 1-443; Bought protein; not shown: 6×His-tag
Put plainly: ELISA: plate coated with LILRB3 ECD recombinant protein, antibody at 0.5 ug/mL (method of example 3.2.1); mean OD450 printed over the bar [continued) G].

Assay [15] concerns the target T8, Human LILRB5 ECD recombinant protein with 6×His-tag (human, UniProt O75023 24-458, limits assumed).
T8 construct: Bought protein; not shown: 6×His-tag
The assay is described as follows: ELISA: plate coated with LILRB5 ECD recombinant protein, antibody at 0.5 ug/mL (method of example 3.2.1); mean OD450 printed over the bar [continued) I].

Assay [16] deals with T3, Human LILRB2 stably expressed on EL4 …. Put plainly: Competitive FACS: EL4/LILRB2 cells preincubated with 10 ug/mL antibody, then ANGPTL4 added; inhibition of the ligand's binding to the cells [panel ANGPTL4].
Method: as §1

T5 sequence (P59901 24-446 limits assumed): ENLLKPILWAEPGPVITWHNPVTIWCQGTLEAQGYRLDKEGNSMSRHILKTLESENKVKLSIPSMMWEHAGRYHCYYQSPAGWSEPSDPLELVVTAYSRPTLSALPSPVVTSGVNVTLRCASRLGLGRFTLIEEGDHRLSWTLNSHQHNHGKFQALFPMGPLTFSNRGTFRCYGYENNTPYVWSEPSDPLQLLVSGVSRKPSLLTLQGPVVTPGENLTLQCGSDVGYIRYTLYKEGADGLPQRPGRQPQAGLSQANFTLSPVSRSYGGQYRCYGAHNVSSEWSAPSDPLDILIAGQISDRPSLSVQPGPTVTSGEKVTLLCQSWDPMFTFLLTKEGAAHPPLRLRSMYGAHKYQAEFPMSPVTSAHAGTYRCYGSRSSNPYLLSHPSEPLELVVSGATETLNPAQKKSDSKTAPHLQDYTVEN
T6 sequence (Q8NHL6 24-458 limits assumed): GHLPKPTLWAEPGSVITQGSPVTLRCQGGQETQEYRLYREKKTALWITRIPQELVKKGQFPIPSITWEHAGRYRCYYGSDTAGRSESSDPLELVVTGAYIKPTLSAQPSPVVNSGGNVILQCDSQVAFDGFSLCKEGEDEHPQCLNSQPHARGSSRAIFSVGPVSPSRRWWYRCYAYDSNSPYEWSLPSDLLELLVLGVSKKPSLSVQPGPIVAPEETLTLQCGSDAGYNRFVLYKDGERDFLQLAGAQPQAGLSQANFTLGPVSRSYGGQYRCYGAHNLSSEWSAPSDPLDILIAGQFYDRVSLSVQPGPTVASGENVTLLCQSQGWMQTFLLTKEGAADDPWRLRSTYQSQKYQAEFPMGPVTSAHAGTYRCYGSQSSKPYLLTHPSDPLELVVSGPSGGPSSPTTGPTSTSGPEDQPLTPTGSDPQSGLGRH
T8 sequence (O75023 24-458 limits assumed): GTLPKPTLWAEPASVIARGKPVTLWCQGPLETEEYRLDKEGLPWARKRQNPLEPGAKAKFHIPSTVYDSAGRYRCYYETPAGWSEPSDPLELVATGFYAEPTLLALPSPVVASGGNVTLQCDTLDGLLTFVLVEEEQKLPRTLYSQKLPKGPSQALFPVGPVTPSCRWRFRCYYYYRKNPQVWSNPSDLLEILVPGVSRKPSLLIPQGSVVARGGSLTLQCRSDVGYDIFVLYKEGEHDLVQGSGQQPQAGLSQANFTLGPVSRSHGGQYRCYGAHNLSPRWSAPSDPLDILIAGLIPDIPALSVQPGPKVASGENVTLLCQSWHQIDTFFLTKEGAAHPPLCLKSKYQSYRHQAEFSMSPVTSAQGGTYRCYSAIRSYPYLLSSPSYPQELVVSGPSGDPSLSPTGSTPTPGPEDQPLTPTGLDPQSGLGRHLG
T1 sequence (Q8N423 22-458 limits assumed): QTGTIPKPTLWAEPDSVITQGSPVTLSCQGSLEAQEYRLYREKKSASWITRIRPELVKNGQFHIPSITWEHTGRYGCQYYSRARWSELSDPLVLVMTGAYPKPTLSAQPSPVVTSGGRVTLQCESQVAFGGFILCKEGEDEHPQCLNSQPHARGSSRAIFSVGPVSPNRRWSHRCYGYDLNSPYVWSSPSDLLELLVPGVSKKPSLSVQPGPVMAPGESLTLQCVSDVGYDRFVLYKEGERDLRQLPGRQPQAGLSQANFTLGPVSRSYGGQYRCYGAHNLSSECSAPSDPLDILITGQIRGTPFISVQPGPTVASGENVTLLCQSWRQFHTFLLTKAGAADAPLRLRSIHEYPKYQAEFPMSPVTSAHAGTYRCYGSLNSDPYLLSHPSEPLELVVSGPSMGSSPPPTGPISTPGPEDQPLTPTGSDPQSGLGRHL
T3 sequence (Q8N423 22-597 limits assumed): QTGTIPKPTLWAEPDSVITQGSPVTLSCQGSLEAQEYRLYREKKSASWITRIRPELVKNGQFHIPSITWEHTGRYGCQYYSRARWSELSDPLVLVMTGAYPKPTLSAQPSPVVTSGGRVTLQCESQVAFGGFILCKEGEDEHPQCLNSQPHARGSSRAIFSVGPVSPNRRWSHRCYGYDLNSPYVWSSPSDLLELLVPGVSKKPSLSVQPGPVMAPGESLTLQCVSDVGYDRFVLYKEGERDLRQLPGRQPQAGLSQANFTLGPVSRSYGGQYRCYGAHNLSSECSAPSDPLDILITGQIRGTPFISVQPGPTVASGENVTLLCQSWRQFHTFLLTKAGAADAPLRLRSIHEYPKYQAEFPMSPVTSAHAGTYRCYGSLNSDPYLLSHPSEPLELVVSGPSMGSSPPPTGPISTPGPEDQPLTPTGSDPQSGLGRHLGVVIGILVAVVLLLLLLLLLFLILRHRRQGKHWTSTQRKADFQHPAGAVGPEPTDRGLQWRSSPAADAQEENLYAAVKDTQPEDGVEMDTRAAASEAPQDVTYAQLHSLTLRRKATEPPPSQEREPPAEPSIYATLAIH
T2 sequence (Q8N423 22-597): as the sequence (Q8N423 22-597 limits assumed) above
T4 sequence (Q8N149 24-449 limits assumed): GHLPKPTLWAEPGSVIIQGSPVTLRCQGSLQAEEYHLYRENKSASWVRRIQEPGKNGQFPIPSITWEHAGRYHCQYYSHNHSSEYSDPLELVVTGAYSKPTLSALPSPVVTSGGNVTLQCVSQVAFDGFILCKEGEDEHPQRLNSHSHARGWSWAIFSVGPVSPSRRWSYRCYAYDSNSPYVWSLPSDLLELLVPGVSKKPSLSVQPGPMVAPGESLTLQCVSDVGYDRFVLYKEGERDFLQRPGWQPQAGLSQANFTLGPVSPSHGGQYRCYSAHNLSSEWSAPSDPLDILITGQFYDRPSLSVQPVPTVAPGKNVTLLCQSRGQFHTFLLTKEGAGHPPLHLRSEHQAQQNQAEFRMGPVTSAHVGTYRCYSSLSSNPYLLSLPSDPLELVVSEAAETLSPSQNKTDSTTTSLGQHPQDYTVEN

B1: 043c (antibody, V domains shown)
VH: QVQLQQSGAELAKPGASVKLSCKASGYTFTSYWMYWVKQRPGQGLEWIGHINPSSGYTKYNQKFKDKATLTADKSSSTAYMQLSSLTYEDSAVYYCARDPNWDNYWGQGTTLTVSS
VL: DIVMTQSHKFMSTSVGDRVSITCKASQDVSIAVAWYQQKPGQSPKLLIYSASYRYTGVPDRFTGSGSGTDFTFTISSVQAEDLAVYYCQQHYSTPYTFGGGTKLEIK
notes: Human IgG4 chimeric antibody with S228P mutation at the Fc region; also called chimeric antibody 043c; parental antibody 043c
B1: the Kd in [1] turned out to be 2400 pM. Also, in assay [2], the “Relative cytokine/chemokine level, B7-H1/PD-L1 (M2-T coculture 1:1, Luminex)” value was 1.8 fold of Medium; the “Relative cytokine/chemokine level, CCL3/MIP-1 alpha (M2-T coculture 1:1, Luminex)” value is 1.3 fold of Medium; the “Relative cytokine/chemokine level, CCL4/MIP-1 beta (M2-T coculture 1:1, Luminex)” value is 2.4 fold of Medium; the “Relative cytokine/chemokine level, CCL5/RANTES (M2-T coculture 1:1, Luminex)” value is 3.8 fold of Medium. In addition, in assay [2], the “Relative cytokine/chemokine level, CCL19/MIP-3 beta (M2-T coculture 1:1, Luminex)” value is 0.3 fold of Medium; the “Relative cytokine/chemokine level, CCL20/MIP-3 alpha (M2-T coculture 1:1, Luminex)” value was 2.2 fold of Medium; the “Relative cytokine/chemokine level, CXCL2/GRO beta (M2-T coculture 1:1, Luminex)” value was 0.4 fold of Medium; the “Relative cytokine/chemokine level, FGF-basic (M2-T coculture 1:1, Luminex)” value is 1.3 fold of Medium. In assay [2], the “Relative cytokine/chemokine level, G-CSF (M2-T coculture 1:1, Luminex)” value was 2.3 fold of Medium; the “Relative cytokine/chemokine level, GM-CSF (M2-T coculture 1:1, Luminex)” value was 1.6 fold of Medium; the “Relative cytokine/chemokine level, Granzyme B (M2-T coculture 1:1, Luminex)” value was 7.6 fold of Medium; the “Relative cytokine/chemokine level, IFN-alpha (M2-T coculture 1:1, Luminex)” value is 2.2 fold of Medium. Further, in assay [2], the “Relative cytokine/chemokine level, IFN-gamma (M2-T coculture 1:1, Luminex)” value was 4.1 fold of Medium; the “Relative cytokine/chemokine level, IL-1beta/IL-1F2 (M2-T coculture 1:1, Luminex)” value is 1.9 fold of Medium; the “Relative cytokine/chemokine level, IL-2 (M2-T coculture 1:1, Luminex)” value was 17.8 fold of Medium; the “Relative cytokine/chemokine level, IL-3 (M2-T coculture 1:1, Luminex)” value was 3.6 fold of Medium. Further, in [2], the “Relative cytokine/chemokine level, IL-4 (M2-T coculture 1:1, Luminex)” value is 1.6 fold of Medium; the “Relative cytokine/chemokine level, IL-5 (M2-T coculture 1:1, Luminex)” value is 2.3 fold of Medium; the “Relative cytokine/chemokine level, IL-6 (M2-T coculture 1:1, Luminex)” value was 0.2 fold of Medium; the “Relative cytokine/chemokine level, IL-13 (M2-T coculture 1:1, Luminex)” value is 1.8 fold of Medium. Further, in [2], the “Relative cytokine/chemokine level, IL-15 (M2-T coculture 1:1, Luminex)” value is 1.8 fold of Medium; the “Relative cytokine/chemokine level, PDGF-AA (M2-T coculture 1:1, Luminex)” value is 4.3 fold of Medium; the “Relative cytokine/chemokine level, PDGF-AB/BB (M2-T coculture 1:1, Luminex)” value was 1.5 fold of Medium; the “Relative cytokine/chemokine level, TGF-alpha (M2-T coculture 1:1, Luminex)” value is 3.2 fold of Medium. Besides, in [2], the “Relative cytokine/chemokine level, TNF-alpha (M2-T coculture 1:1, Luminex)” value is 4.8 fold of Medium and the “Relative cytokine/chemokine level, VEGF (M2-T coculture 1:1, Luminex)” value is 0.3 fold of Medium. This molecule displayed a half-maximal effective concentration (EC50) in [3] of 730 pM. Moreover, in assay [4], the EC50 is 320 pM. The molecule further registered an EC50 in assay [5] of 290 pM. Moreover, in assay [6], the Kd is 740 pM, the koff worked out at 0.000557 s⁻¹ and the kon was 756000 M⁻¹ s⁻¹. Moreover, in assay [7], the IC50 came out at 110 pM and the “TOP Blocking (%)” value was found to be 100%. Moreover, the “relative binding signal of Ab2 in tandem” value in assay [8] was determined as 3%. For the same molecule, the kon in [9] came to 494000 M⁻¹ s⁻¹. In addition, in [10], the off-rate constant (koff) turned out to be 0.00119 s⁻¹. Further, the OD450 in [11] was 0.08. Besides, the OD450 in [12] stood at 0.13. The OD450 in [13] was found to be 0.08. Moreover, in assay [14], the OD450 amounted to 0.08. The OD450 in [15] is 0.08. Further, the “Inhibition (%)” value in assay [16] is 63%.

B2: J-19 (antibody, V domains shown)
VH: QVTLKESGPGILQPSHTLSLTCSFSGFSLNTYAMGVSWIRQPSGKGLEWLASIWWNGNKYNNPSLKSRLTVSKDTSNNQAFLKVTSVDTADTATYYCAHSRIIRFTDYVMDAWGQGASVTVSS
VL: DIQMTQSPASLSTFLGEPVTIECRASEDIYNDLAWYQQKPGKSPQLLIYNANSLHTGVPSRFSGSGSGTQYSLKINSLQSEDVASYFCQQYYDYPLTFGSGTKLEIK
notes: Human IgG4 monoclonal antibody with S228P in the constant region, made according to WO 2019/126514 A2; also called benchmark antibody J-19
For the molecule B2, the Kd in assay [6] was 2140 pM. In addition, in assay [6], the koff turned out to be 0.00178 s⁻¹. Besides, the kon in assay [6] was found to be 830000 M⁻¹ s⁻¹. In assay [7], the half-maximal inhibitory concentration (IC50) is 70 pM. Further, the “TOP Blocking (%)” value in [7] stood at 100%. Also, in assay [8], the “relative binding signal of Ab2 in tandem” value is 96%. In addition, the OD450 in assay [11] came out at 0.08; in [12], 0.17; in [13], 0.1; in assay [14] it was 0.09; in assay [15] it was 0.09. The “Inhibition (%)” value in assay [16] came to 59%.

B3: 1E1 (antibody, V domains shown)
VH: QVQLQQWGAGLLKPSETLSLTCAVYGGSFSGYYWSWIRQPPGKGLEWIGEINHSGSTNYNPSLKSRVTISVDTSKNQFSLKLSSVTAADTAVYYCARLPTRWVTTRYFDLWGRGTLVTVSS
VL: QSVLTQPPSVSGAPGQRVTISCTGSSSNIGAGYDVHWYQQLPGTAPKLLIYGNSNRPSGVPDRFSVSKSGASASLAITGLQAEDEADYYCQSFDNSLSAYVFGGGTQLTVL
notes: Human IgG4 monoclonal antibody with S228P in the constant region, made according to US 2018/0298096 A1; also called benchmark antibody 1E1
For the molecule B3, the concentration for a half-maximal effect (EC50) stood at 840 pM in assay [4] and 910 pM in assay [5]. Further, the Kd in [6] worked out at 8070 pM. The koff in assay [6] was found to be 0.00204 s⁻¹. Further, the kon in [6] came to 253000 M⁻¹ s⁻¹. In [8], the “relative binding signal of Ab2 in tandem” value was 100%. Besides, the OD450 was 0.07 in assay [11]; 0.12 in [12]; 0.08 in assay [13]; 0.07 in [14]; 0.07 in assay [15]. Further, in assay [16], the “Inhibition (%)” value is 54%.
